T1: CD96 epitope peptide #1 (17-36) (human)
T1 peptide: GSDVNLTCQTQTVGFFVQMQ

T2: CD96 epitope peptide #2 (32-51) (human)
T2 peptide: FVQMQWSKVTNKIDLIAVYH

T3: CD96 epitope peptide #7 (107-126) (human)
T3 peptide: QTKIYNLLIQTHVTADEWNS

T4: CD96 epitope peptide #8 (122-141) (human)
T4 peptide: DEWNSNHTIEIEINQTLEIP

T5: CD96 epitope peptide #11 (166-185) (human)
T5 peptide: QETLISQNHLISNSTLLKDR

T6: CD96 epitope peptide #13 (196-215) (human)
T6 peptide: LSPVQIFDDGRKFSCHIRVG

T7: CD96 epitope peptide #14 (211-230) (human)
T7 peptide: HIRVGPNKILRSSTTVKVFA

T8: CD96 epitope peptide #15 (220-239) (human)
T8 peptide: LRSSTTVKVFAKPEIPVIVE

T9: CD96 epitope peptide #17 (250-269) (human)
T9 peptide: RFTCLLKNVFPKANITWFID

T10: CD96 epitope peptide #20 (295-314) (human)
T10 peptide: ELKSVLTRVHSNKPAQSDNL

T11: Biotinylated CD96 antigen (human, UniProt P40200-2 22-503, limits assumed, biotinylated)
T11 sequence (looked up): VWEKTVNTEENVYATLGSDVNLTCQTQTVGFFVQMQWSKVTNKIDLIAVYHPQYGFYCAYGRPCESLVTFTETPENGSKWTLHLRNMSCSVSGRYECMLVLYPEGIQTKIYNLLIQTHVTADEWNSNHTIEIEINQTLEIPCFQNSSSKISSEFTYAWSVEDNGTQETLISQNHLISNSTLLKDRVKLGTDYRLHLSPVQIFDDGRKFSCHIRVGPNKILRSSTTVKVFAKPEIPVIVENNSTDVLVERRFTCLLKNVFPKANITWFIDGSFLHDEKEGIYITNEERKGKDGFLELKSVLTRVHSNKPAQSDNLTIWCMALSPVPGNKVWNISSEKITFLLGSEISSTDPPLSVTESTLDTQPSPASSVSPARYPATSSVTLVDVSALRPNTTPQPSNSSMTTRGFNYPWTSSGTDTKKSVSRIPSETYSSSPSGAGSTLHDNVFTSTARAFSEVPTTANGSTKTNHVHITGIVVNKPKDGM


Tests used:
[1] = biological target: T1, CD96 epitope peptide #1 (17-36); experiment: peptide ELISA ('-' indicates no binding, table note)
Method: (§1) The epitopes recognized by anti-CD96 antibody were detected by the assay of binding the antibody to different polypeptide fragments of CD96 protein. The fragments of different polypeptides of the CD96 antigen were coated on the microtiter plate. The signal density after the antibody was added was used to judge the binding activity of the antibody and the polypeptide. The specific experimental method is as follows:
(§2) The polypeptides were diluted to a concentration of 20 μg/ml with PBS buffer (Shanghai Yuanpei Biotechnology Co., Ltd. Cat No. B320), pH 7.4, added to a 96-well microtiter plate (Corning, Cat No. CLS3590-100EA) at a volume of 50 μl/well, and coated at 4° C. overnight. After discarding the liquid, 250 μl/well of 5% skim milk (BD skim milk, Cat No. 232100) blocking solution diluted with PBS was added, and the plate was incubated in an incubator at 37° C. for 3 hours. After blocking, the blocking solution was discarded, and the plate was washed 5 times with PBST buffer (pH 7.4 PBS containing 0.05% tween-20). 50 μl/well of different concentrations of the antibodies to be tested (hybridoma purification antibody or humanized antibody) diluted with sample dilution was added, and the plate was incubated in an incubator at 37° C. for 2 hours. […] After washing the plate 5 times with PBST, 50 μl/well of TMB chromogenic substrate (KPL, Cat No. 52-00-03) was added, the plate was incubated at room temperature for 5-15 min, followed by adding 50 μl/well of 1M H₂SO₄ to stop the reaction. The absorption value was read at 450 nm with a microplate reader (Thermo Scientific MuLtiskan MK3), and the epitopes that CD96 antibody can recognize were analyzed.

[2] = biological target: T2, CD96 epitope peptide #2 (32-51); experiment: as above
Method: as §1, §2

[3] = biological target: T3, CD96 epitope peptide #7 (107-126); experiment: as above
Method: as §1, §2

[4] = biological target: T4, CD96 epitope peptide #8 (122-141); experiment: as above
Method: as §1, §2

[5] = biological target: T5, CD96 epitope peptide #11 (166-185); experiment: as above
Method: as §1, §2

[6] = biological target: T6, CD96 epitope peptide #13 (196-215); experiment: as above
Method: as §1, §2

[7] = biological target: T7, CD96 epitope peptide #14 (211-230); experiment: as above
Method: as §1, §2

[8] = biological target: T8, CD96 epitope peptide #15 (220-239); experiment: as above
Method: as §1, §2

[9] = biological target: T9, CD96 epitope peptide #17 (250-269); experiment: as above
Method: as §1, §2

[10] = biological target: T10, CD96 epitope peptide #20 (295-314); experiment: as above
Method: as §1, §2

[11] = biological target: T11, Biotinylated CD96 antigen; experiment: competition ELISA: antibody B pre-incubated with biotinylated CD96 antigen, added to a plate coated with antibody A, HRP-streptavidin, OD450; competitor: coated h1722-010
Method: Competitive assays of different antibodies binding to CD96 protein were used to classify binding epitopes of the antibodies. The specific experimental methods are as follows:
Antibody A was diluted to a concentration of 2 μg/ml with PBS buffer (Shanghai Yuanpei Biotechnology Co., Ltd. Cat No. B320), pH 7.4, added to a 96-well microtiter plate (Corning, Cat No. CLS3590-100EA) at a volume of 50 μl/well, and coated at 4° C. overnight. After discarding the liquid, 250 μl/well of 5% skim milk (BD skim milk, Cat No. 232100) blocking solution diluted with PBS was added, and the plate was incubated at 37° C. for 3 hours. After blocking, the blocking solution was discarded, and the plate was washed 5 times with PBST buffer (pH 7.4 PBS containing 0.05% tween-20) and stored for later use. Antibody B was diluted to 40 μg/ml and 8 μg/ml with 1% BSA, and Biotinylated CD96 antigen was simultaneously diluted to 4 μg/mL. Subsequently, antibody B and antigen were mixed in a 1:1 volume ratio, pre-incubated at 37° C. for 45 minutes, added into the enzyme plate coated with antibody A, thus incubating the plate in an incubator at 37° C. for 1.5 hours. […] The absorption value was read at 450 nm with a NOVOStar microplate reader, and the OD value was used to determine whether A and B CD96 antibodies compete with each other. […]

binding result [1]	binding result [2]	binding result [3]	binding result [4]	binding result [5]	binding result [6]	binding result [7]	binding result [8]	binding result [9]	binding result [10]	IC50 (read off the curve) [11] [nM]	Binder
no binding	no binding	no binding	no binding	no binding	no binding	no binding	no binding	no binding	no binding	–	ch1719 (antibody, human IgG4 S228P, kappa, V domains shown, also called chimeric antibody corresponding to m1719) VH: QVQLKESGPGLVAPSQSLSITCTVSGFSLISYGVSWVRQPPGKGLEWLGVIWGDGNTNYHSVLISRLSIRKDDSKSQVFLKLNSLQTDDTATYYCAKNNYYGSRYGYPMDYWGQGTSVTVSS VL: DIVMTQSHKFMSTSVGDRVSITCKATQDVGTAVAWYQQKPGHSPKLLIYWASTRHTGVPERFTGSGSGTDFTLTIDNVQSEDLADYFCQQYGSSVLTFGAGTKVELRR
no binding	no binding	no binding	no binding	no binding	no binding	no binding	no binding	no binding	no binding	–	ch1720 (antibody, human IgG4 S228P, kappa, V domains shown, also called chimeric antibody corresponding to m1720) VH: EFQLQQSGPELVKPGASVKISCKASAYSLTDYNMNWVKQSNGKSLEWIGVINPSYGISSYNQKFKGKATLTVDQSSSTAYMHLNSLTSEDSAVYYCARQLRLPGYFDVWGTGTTVTVSS VL: DIKMTQSPSSKNASLGERVTITCKASQDINSYLNWFQQKPGKSPKTLIYRASRLVDGVPSRFSGSGSGQDYSLTISSLEYEDMGIYYCLKYDEFPYTFGGGTKLEIKR
–	–	–	–	–	–	–	–	–	–	~0.5	h1722-010 (antibody, V domains shown, Only variable regions are tied to this name; also called M722-010) VH: EVQLVQSGAEVKKPGSSVKVSCKASGGTFSDYWMHWVRQAPGQGLEWIGMLHPNSGTTSFNEKFKIRVTITADKSTSTAYMELSSLRSEDTAVYYCASDYSGPFAYWGQGTLVTVSS VL: DIQLTQSPSSLSASVGDRVTITCSASSSVNYIHWYQQKPGKAPKRWIFDTSKLASGVPSRFSGSGSGTDYTLTISSLQPEDFATYYCQQWRSNPLTFGQGTKLEIK

Reference: patent US20200347130A1 (JIANGSU HENGRUI MEDICINE, published 2020)
